The target in the test is affinity-matured, humanized, antiprostate stem-cell antigen (PSCA) minibody (clone A11.1 2C3). The test can be described thus: SEC. A general note: SEC sorts molecules by how far they enter the pores of the column.

The stoichiometry N is the number of molecules, sites or subunits per partner or assembly.

B1: affinity-matured, humanized, antiprostate stem-cell antigen (PSCA) minibody (clone A11.1 2C3) (antibody, V domains shown)
VH: EVQLVEYGGGLVQPGGSLRLSCAASGFNIKDYYIHWVRQAPGKGLEWVAWIDPENGDTEFVPKFQGRATMSADTSKNTAYLQMNSLRAEDTAVYYCKTGGFWGQGTLVTVSS
VL: DIQLTQSPSTLSASMGDRVTITCSASSSVRFIHWYQQKPGKAPKRLIYDTSKLASGVPSRFSGSGSGTDFTLTISSLQPEDFATYYCQQWGSSPFTFGQGTKVEIK
Molecule B1 had a stoichiometry N of 2.
